Reference: patent US20200017592A1 (Regeneron, published 2020)
Substitutions are numbered along the chain they refer to.

B1: H4H14706P2 (antibody, human IgG4 S228P, kappa, V domains shown)
VH: EVQLVESGGGLVQPGRSLRLSCTASGFTFDDYAIHWVRQSPGKGLEWVSVISWNSDVIGYADSVKGRFTISRDNAKNSLYLQMNSLRAEDTALYYCAKGYNWNFFDYWGQGTLVTVSS
VL: EIVLTQSPATLSLSPGERATLSCRASQSVSSYLAWYQQKPGQAPRLLIYNAANRATDIPARFSGSGSGTDFTLTISSLEPEDFAVYYCQQRSNWPLTFGGGTKVEIKR
B2: H4H14708P2 (antibody, human IgG4 S228P, kappa, V domains shown)
VH: EVQLVESGGDLVQPGRSLRLSCAASGFTFDDYAMHWVRQAPGKGLEWVSVISWNSDVIAYSDSVKGRFTISRDNAKNSLYLQMNSLRTEDTALYYCTKGHKWSFFDYWGQGTLVTVSS
VL: B1 VL with V29I, Y49F, A51V
B3: H4H14706P2 (antibody, human IgG4 S228P, kappa, V domains shown)
VH: B1 VH
VL: B1 VL
B4: H4H14708P2 (antibody, human IgG4 S228P, kappa, V domains shown)
VH: B2 VH
VL: B1 VL with V29I, Y49F, A51V

How the values were obtained:
[1] = biological target: T1, Macaca fascicularis IL-36R on cells (Macaca fascicularis, UniProt A0A2K5WSK9 20-558); test: cell-based or functional assay
T1 sequence: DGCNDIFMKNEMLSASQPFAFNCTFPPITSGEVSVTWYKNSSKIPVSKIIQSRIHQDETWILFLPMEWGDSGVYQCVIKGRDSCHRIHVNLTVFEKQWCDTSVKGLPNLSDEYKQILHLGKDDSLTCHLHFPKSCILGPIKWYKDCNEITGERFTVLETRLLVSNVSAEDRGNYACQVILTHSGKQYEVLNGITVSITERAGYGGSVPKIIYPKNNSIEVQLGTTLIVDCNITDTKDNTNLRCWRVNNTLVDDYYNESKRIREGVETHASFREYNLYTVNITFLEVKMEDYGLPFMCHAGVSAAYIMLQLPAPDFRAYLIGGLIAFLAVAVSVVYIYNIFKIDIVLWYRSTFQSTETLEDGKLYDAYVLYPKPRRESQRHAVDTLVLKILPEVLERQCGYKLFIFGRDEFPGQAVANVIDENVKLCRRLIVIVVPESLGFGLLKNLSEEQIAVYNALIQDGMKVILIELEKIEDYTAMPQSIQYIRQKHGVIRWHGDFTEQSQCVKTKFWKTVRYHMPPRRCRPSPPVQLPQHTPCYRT

[2] = biological target: T2, full-length human IL-36R on cells (human, UniProt Q9HB29 20-575); test: cell-based or functional assay
T2 sequence (looked up): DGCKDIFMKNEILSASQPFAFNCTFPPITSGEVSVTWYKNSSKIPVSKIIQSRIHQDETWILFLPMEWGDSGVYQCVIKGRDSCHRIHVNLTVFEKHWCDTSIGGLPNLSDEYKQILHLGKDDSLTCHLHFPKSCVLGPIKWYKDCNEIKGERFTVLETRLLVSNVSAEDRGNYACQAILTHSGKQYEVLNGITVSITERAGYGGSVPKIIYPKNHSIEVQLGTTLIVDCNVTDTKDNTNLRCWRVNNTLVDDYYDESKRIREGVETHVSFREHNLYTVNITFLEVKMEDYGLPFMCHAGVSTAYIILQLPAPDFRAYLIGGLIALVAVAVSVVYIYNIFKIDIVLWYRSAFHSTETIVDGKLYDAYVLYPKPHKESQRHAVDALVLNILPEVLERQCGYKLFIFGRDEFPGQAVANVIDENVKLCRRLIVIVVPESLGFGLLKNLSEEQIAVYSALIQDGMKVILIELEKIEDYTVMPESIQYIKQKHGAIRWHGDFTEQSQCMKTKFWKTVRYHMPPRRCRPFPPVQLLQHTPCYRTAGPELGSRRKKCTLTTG

[3] = biological target: T3, recombinant human IL-36R extracellular domain expressed with a C-terminal myc-myc-hexahistidine tag (human, UniProt Q9HB29 20-337); test: SPR (Biacore 4000), mAb captured on anti-human Fc, 37°C
T3 construct: also called hIL-36R-MMH; hIL-36R.mmH
Description: (§1) Equilibrium dissociation constants (KD values) for IL-36R binding to purified anti-IL-36R antibodies were determined using a real-time surface plasmon resonance biosensor using a Biacore 4000 instrument. The Biacore sensor surface was first derivatized by amine coupling with a monoclonal mouse anti-human Fc antibody (GE, # BR-1008-39) to capture anti-IL-36R monoclonal antibodies. All binding studies were performed in 0.01 M Hepes pH 7.4, 0.15 M NaCl, 3 mM EDTA, and 0.05% v/v Surfactant Tween-20 (HBS-ET running buffer) at 25° C. and 37° C. Different concentrations of IL-36R reagents, human IL-36R extracellular domain expressed with a C-terminal myc-myc-hexahistidine tag (hIL-36R-MMH), Macaca fascicularis IL-36R extracellular domain expressed with a C-terminal myc-myc-hexahistidine tag (mfIL-36R-MMH: mROR1 signal sequence (M1-A29). Macaca fascicularis IL36R_ecto domain (D20-A336).mycmycHis6), human IL-36R extracellular domain expressed with a C-terminal mouse IgG2a Fc tag (hIL-36R-mFc: mROR1 signal sequence (M1-A29)-human IL36R (D20-Y337)-mouse IgG2aFc (E98-K330)) or an in-line fusion protein of human IL-36R extracellular domain and IL1RAcP extracellular domain expressed with mouse IgG2a Fc tag (hIL-36R-Trap-mFc: mROR1 signal sequence (M1-A29)-human IL36R ecto domain (D20-Y337)-human IL1RacP ecto domain(S21-E359)-mouse IgG2aFc) in HBS-ET running buffer (ranging from 100 nM to 3.7 nM, 3-fold dilutions) were injected over the anti-IL-36R antibody captured surface for 4 minutes at a flow rate of 30 μL/minute and their dissociation in HBS-ET running buffer was monitored for 10 minutes. Kinetic association rate constant (kₐ) and dissociation rate constant (kd) were determined by fitting the real-time sensorgrams to a 1:1 binding model using Scrubber 2.0c curve fitting software. Binding dissociation equilibrium constants (KD) and dissociative half-lives (t_{1/2}) were calculated from the kinetic rate constants as: […]

[4] = biological target: T2, full-length human IL-36R on cells; test: cell-based or functional assay; remark: listed apart in the source
[5] = biological target: T3, recombinant human IL-36R extracellular …; test: SPR (Biacore 4000), mAb captured on anti-human Fc, 25°C
Description: as §1

[6] = biological target: T4, human IL-36R (IL1RL2) on primary human cells (human, UniProt Q9HB29 20-575); test: cell-based or functional assay
T4 sequence (looked up): T2 sequence (looked up)

T3 sequence (Q9HB29 other isoform, or with tags, fused parts or gaps limits assumed): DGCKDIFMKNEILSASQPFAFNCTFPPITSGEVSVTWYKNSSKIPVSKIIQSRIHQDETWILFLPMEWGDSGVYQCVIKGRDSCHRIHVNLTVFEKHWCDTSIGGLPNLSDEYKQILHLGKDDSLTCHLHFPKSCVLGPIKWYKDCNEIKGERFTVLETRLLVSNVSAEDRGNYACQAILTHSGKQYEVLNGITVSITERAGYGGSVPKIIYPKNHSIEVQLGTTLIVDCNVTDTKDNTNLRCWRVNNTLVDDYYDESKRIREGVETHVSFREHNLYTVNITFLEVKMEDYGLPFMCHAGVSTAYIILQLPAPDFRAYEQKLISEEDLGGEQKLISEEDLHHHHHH

Row | Binder | IC50 [M], NFκB-luciferase, 300 pM hIL-36γ [1] [M] | IC50 [M], NFκB-luciferase, 500 pM hIL-36α [1] [M] | IC50 [M], NFκB-luciferase, 600 pM hIL-36β [1] [M] | Max Inhibition (%), NFκB-luciferase, 300 pM hIL-36γ [1] [%] | Max Inhibition (%), NFκB-luciferase, 500 pM hIL-36α [1] [%] | Max Inhibition (%), NFκB-luciferase, 600 pM hIL-36β [1] [%] | IC50 [M], NFκB-luciferase, 10 pM hIL-36γ [2] [M] | IC50 [M], NFκB-luciferase, 15 pM hIL-36β [2] [M] | IC50 [M], NFκB-luciferase, 20 pM hIL-36α [2] [M] | Max Inhibition (%), NFκB-luciferase, 10 pM hIL-36γ [2] [%] | Max Inhibition (%), NFκB-luciferase, 15 pM hIL-36β [2] [%] | Max Inhibition (%), NFκB-luciferase, 20 pM hIL-36α [2] [%] | 100 nM hIL-36R-MMH Bound (RU) [3] [RU] | Kd [3] [nM] | koff [3] [s⁻¹] | kon [3] [M⁻¹ s⁻¹] | t½ [3] [min] | IC50, IL-8 production of primary human cells stimulated with 10 nM IL-36α, β and γ [4] [nM] | 100 nM hIL-36R-MMH Bound (RU) [5] [RU] | Kd [5] [nM] | further results
1 | B1 | 8.5e-11 | 6e-11 | 1.2e-10 | 100 | 100 | 100 | 1.2e-10 | 1.2e-10 | 1e-10 | 99 | 101 | 101 | 113 | 8.65 | 0.0013 | 150000 | 9 | 1 to 6 | 89 | 4.08 | koff [5]: 0.000495 s⁻¹; kon [5]: 121000 M⁻¹ s⁻¹; t½ [5]: 23 min
2 | B2 | 1.2e-10 | 8.9e-11 | 1.2e-10 | 100 | 99 | 100 | 1.6e-10 | 2e-10 | 1.3e-10 | 99 | 100 | 101 | 106 | 13.6 | 0.00186 | 136000 | 6 | 1 to 6 | 76 | 6.82 | koff [5]: 0.000623 s⁻¹; kon [5]: 91400 M⁻¹ s⁻¹; t½ [5]: 19 min
3 | B3 | – | – | – | – | – | – | – | – | – | – | – | – | – | – | – | – | – | – | – | – | IC50 [M], IL-8 production, InMyoFib stimulated with 10 nM hIL-36α [6]: 4.89e-09 M; IC50 [M], IL-8 production, InMyoFib stimulated with 10 nM hIL-36β [6]: 3.62e-09 M; IC50 [M], IL-8 production, InMyoFib stimulated with 10 nM hIL-36γ [6]: 4.59e-09 M; IC50 [M], IL-8 production, NHEK stimulated with 10 nM hIL-36α [6]: 4.42e-09 M; IC50 [M], IL-8 production, NHEK stimulated with 10 nM hIL-36β [6]: 3.62e-09 M; IC50 [M], IL-8 production, NHEK stimulated with 10 nM hIL-36γ [6]: 2.11e-09 M; IC50 [M], IL-8 production, PB-derived CD14+ Monocytes stimulated with 10 nM hIL-36α [6]: 1.15e-09 M; IC50 [M], IL-8 production, PB-derived CD14+ Monocytes stimulated with 10 nM hIL-36β [6]: 1.74e-09 M; IC50 [M], IL-8 production, PB-derived CD14+ Monocytes stimulated with 10 nM hIL-36γ [6]: 1.58e-09 M
4 | B4 | – | – | – | – | – | – | – | – | – | – | – | – | – | – | – | – | – | – | – | – | IC50 [M], IL-8 production, InMyoFib stimulated with 10 nM hIL-36α [6]: 5.72e-09 M; IC50 [M], IL-8 production, InMyoFib stimulated with 10 nM hIL-36β [6]: 5.3e-09 M; IC50 [M], IL-8 production, InMyoFib stimulated with 10 nM hIL-36γ [6]: 6.4e-09 M; IC50 [M], IL-8 production, NHEK stimulated with 10 nM hIL-36α [6]: 5.06e-09 M; IC50 [M], IL-8 production, NHEK stimulated with 10 nM hIL-36β [6]: 5.79e-09 M; IC50 [M], IL-8 production, NHEK stimulated with 10 nM hIL-36γ [6]: 3.63e-09 M; IC50 [M], IL-8 production, PB-derived CD14+ Monocytes stimulated with 10 nM hIL-36α [6]: 2.38e-09 M; IC50 [M], IL-8 production, PB-derived CD14+ Monocytes stimulated with 10 nM hIL-36β [6]: 2.24e-09 M; IC50 [M], IL-8 production, PB-derived CD14+ Monocytes stimulated with 10 nM hIL-36γ [6]: 1.95e-09 M
